Assay results reported in a protein production outcome set (Wang et al. 2014).

Test: label from the status in PepcDB records

Sequence | protein production
MPAKVLINGYGSIGKRVADAVSMQDDMEVIGVTKTKPDFEARLAVEKGYKLFVAIPDNERVKLFEDAGIPVEGTILDIIEDADIVVDGAPKKIGKQNLENIYKPHKVKAILQGGEKAKDVEDNFNALWSYNRCYGKDYVRVVSCNTTGLCRILYAINSIADIKKARIVLVRRAADPNDDKTGPVNAITPNPVTVPSHHGPDVVSVVPEFEGKILTSAVIVPTTLMHMHTLMVEVDGDVSRDDILEAIKKTPRIITVRAEDGFSSTAKIIEYGRDLGRLRYDINELVVWEESINVLENEIFLMQAVHQESIVIPENIDCIRAMLQMEEDNFKSIEKTNKAMGIQ | not failed
MASYVFIRVSKIRKGYFPVLLAIGFAITFAEGFILFLVNFGAIPTNGPTIQLVPQIIMQNPNPLIRFYGTLILLCFLNTIVLSIFYATIAKLLPKFSG | failed
SYNYNIKRRIAEKAAELVQDNDTIMIESGSTCALLAEVLCQTKRNIKVITNSCFIANYIRQYSSCQIILLGGYYQPNSEVTVGPLLKEMISLFHVNRVFVGTDGFNKDLGFMGKDMMRSEGVRYMADAAEEVVILTDSSKFSKTSLVHQLSLADVNRVITDQALDKQTQELLSASGLVLDFVS | failed
MSLTINVGLLVDETGPTSDVGKGYSLGAELAFKYFNEKGIYTKDGVRVNINYIKRDYAYNPTTAEEYYREFRDRYGVIAIIGWGTADTEKLSDQVDTDKITYISASYSAKLLVKPFNFYPAPDYSTQACSGLAFLASEFGQGKLALAYDSKVAYSRSPIGAIKKAAPSLGLQVVGDYDLPLRATEADAERIAREMLAADPDYVWCGNTISSCSLLGRAMAKVGLDAFLLTNVWGFDERSPQLIGEGGYGKVFGISPFIYPMFGQDVEGIQTIFEAARMNGVSEDQINLRVVQGFVNVWLLIKAIESVTSQDLQERGGEALKEALEANTFDLGGITADTIDYEPGFHLAYRKVFIIKLGENGELQLMGKFEAPSQVDCARYTIEEGHHHHHH | not failed
MDETGNLTVSSATCHDTIDDFRNQVYSTLYSMISVVGFFGNGFVLYVLIKTYHKKSAFQVYMINLAVADLLCVCTLPLRVVYYVHKGIWLFGDFLCRLSTYALYVNLYCSIFFMTAMSFFRCIAIVFPVQNINLVTQKKARFVCVGIWIFVILTSSPFLMAKPQKDEKNNTKCFEPPQDNQTKNHVLVLHYVSLFVGFIIPFVIIIVCYTMIILTLLKKSMKKNLSSHKKAIGMIMVVTAAFLVSFMPYHIQRTIHLHFLHNETKPCDSVLRMQKSVVITLSLAASNCCFDPLLYFFSGGNFRKRLSTFRKHSLSSVTYVPRKKASLPEKGEEICKV | failed
KESLQVTLYRDNHAWCPYCQKVWLWLEEKQIPYRIKKVTMFCYGEKEDWYKKLVPSGMLPALELDGRFYTESDDILIALEKAFGPLLWAMEDPLVLPLRKLERLLFRAWCNWLCYPAM | failed
MHIHILGICGTFMGGIAAIARNAGHTVTGCDANVYPPMSDQLRALGIELTEGWDAGQVRLEPDAFVVGNVVTRGNPLMEAILERGLPYTSGPQWLADNVLRDKWVLAVAGTHGKTTTSAMLAWILEDARLHPGFLVGGIPQNFGLSARLTDSPFFVIEADEYDTAFFDKRSKFVHYRPRTAILNNLEFDHADIFPDIQAIETQFHHLVRTIPGNGLIVANGREAALDRVLERGLWTPVERFGSIGGWTAGEADASGSFDVHFNSALQGRVRWELIGEHNRMNALAAIAAARHAGVPAAAAIDALSRFENVKRRMEIRGAVHGITVYDDFAHHPTAITTTVQGLRAKVGNARILAVLEPRSNTMKLGVMKDALPASLAGADEVYCYGANLGWDAAEALAPLGEKARVFDNLDKLVAQLVADGRPGDHVLMMSNGGFGGIHAKLLDALHHHYHEEIVLTPMHRYGGYA | failed
MRVDGLNGRPHSHWVINKVIGDSTMTFSNAQRLRPVRRHAIFQACALGFALALASGSAFAAAALTQPAQDPAKVAPASLAVSKIDFKRGEDGTGRLILQFNGQGASPDLRTQGDNVLVDISNARLPAELQRPLNVTDFATPVQRVEVKPSGSGSQLVLSTKGAFDSLAYQTGNEYVVEITPRKGQPAVGGVSPAAVTQAAAQIAARGYSGRPVTFNFQDVPVRTVLQLIAEESNLNIVASDTVQGNVTLRLMNVPWDQALDIVLRAKGLDKRRDGGVVWVAPQPELAKFEQDKEDARIAIENREDLITDYVQINYHNAAVIFKALTEAKGIGGGGGSGGGQGGQGGAGQQDNGFLSPRGRLVADERTNTLMISDIPKKVAQMRELISHIDRPVDQVLIESRIVIATDTFARDLGARFGIIGATGRGILSGSLDSNTNYLNTSAKRASEIANGGTSTTLPAHLFPSGLNVNLGAGGGFTTNTPGGLAYTLLGSNFNLDIELSAMQQEGRGEVVSNPRIVTANQREGVIKQGREIGYVTISGSGAGGGSQANVQFKEVLLELKVTPTITNDNRVFLNMNVKKDEVARLIDLPLYGTVPEINRREINTAVLVGDGETVVIGGVYEFTDRESVSKVPFLGDIPFLGNLFKKRGRSKEKAELLVFVTPKVLRVASATR | failed
MRKHSDCMNFCAVDATKGICRLSKQMINLDDAACPEIKVMPKCKNCKNFVEANDEGIGKCVGLEKEDWVYSTLNAITCEGHVFNE | failed
MTPSRDTKIILEGFCHPALNNPKPISVRFEKSILMVTGVNAGGKTMLLKSILSSAFLARYLIPMPILASKSSIGSFKGIAAVLDDPQSAKNDISTFAGRMLSFERFFKERGFLVGVDEIELGTDSDEAASLFKVILEQLIKRDFKIIITTHHKRLAALMAANEEVELMAALYDEKRQMPTFSFLQGTIGKSYAFETAERYGIPPFVIKEAKEVYGQDKEK | failed
NAKAESVSSGEFNRLRLALLALEARHSKRLGVLILDEIDSNLSGEESEGVARVLQELSRSYQILAISHQPHMPSYAHRHFLVKKEAKGSTIERLDRE | failed
MVRLFGPLVGLFFAVALLWSFGNGAYVAITEPAAPTAESVFHKHPKELDLASNGAFGRFDKQQLQRGFQVYKEVCATCHSLKQIAFRDLAALGYSEAEVKAIAKGWPTKAATFNPVTGDRGERDNIPSDRIPAVYYAGQGVPPDLSLMTKARHDGGAYVYSLLTGYAEQPAELLKQFPDAKTPDGLHYNPYFANLNLAMPAPLTTDGQVTYSDGTKASVDQMAKDVSAFLVWTAEPKLDKRKQTGWAVLGFLLVATVLAYLAKKNVWADKH | failed
MEKHKIALISDWYFPKVGGIEYSIHALAKTLNQRGHKVHVITRCYPNIPEYNIRDGVAIIRIKSSPFPGQQRFLMPGAYKELYRLLKEGNYDIINSHGLDSPLGMIALIAARKLGIPSVVTNHSLVGHTPLRLYLYLAGKLLVGNADAVIAVSSAVEKDTKLMTKKPVYRIFNGMEYEESNPIAPLPFDRKGKLVIITVARMTKKKGVQNLIGLAPSFLKKYENLIFLMIGDGPLLKNLEKKVEESGLSENFYFTGEVPRKAVLEYLEQADIFALPSSDEAFGISILEAISKNVPVVAMNHSGISDIITHGVNGYLADNLSEFASCLQDLIEKPALRAEFARKAGEGLSNYDWNKIYEQTCRVYREVIYEKHHHNS | failed
MAAAFASLPTFSVVNSSRFPRRRIGFSCSKKPLEVRCSSGNTRYTKQRGAFTSLKECAISLALSVGLMVSVPSIALPPNAHAVANPVIPDVSVLISGPPIKDPEALLRYALPIDNKAIREVQKPLEDITDSLKIAGVKALDSVERNVRQASRTLQQGKSIIVAGFAESKKDHGNEMIEKLEAGMQDMLKIVEDRKRDAVAPKQKEILKYVGGIEEDMVDGFPYEVPEEYRNMPLLKGRASVDMKVKIKDNPNIEDCVFRIVLDGYNAPVTAGNFVDLVERHFYDGMEIQRSDGFVVQTGDPEGPAEGFIDPSTEKTRTVPLEIMVTGEKTPFYGSTLEELGLYKAQVVIPFNAFGTMAMAREEFENDSGSSQVFWLLKESELTPSNSNILDGRYAVFGYVTDNEDFLADLKVGDVIESIQVVSGLENLANPSYKIAG | failed
MYLRSYMGWRFWALFFCLCSPSSVSAERLASSYLKVTEEAASSRQLIRYCVDPDWLPYEAIREGEHVGISSDYIRYIESHSNFKFSLVPTTSWSETLNFLQTGRCELTPMLNKTATREQFLHFSHVYFHSPNVLVSLKEQPFLQGFENIGSRTLAVPKGYRLAEYIQHYYPKVKIIEVGSEPAGLEAVLDKRADLFVGSMFSVNAYIQQTGFNHLKIAGWGGPEDELRMGVSLGHEALLPILNQVLDDVDELERIRIYQKWNNITVIDETNYLLIYQVIVGTLLVVFLLATRTFFISRYNRRLTDKNEQLEALRLRLEHTNAELEFLSTHDPLTKLYNRHYFNRQFVHEHRSEISSEGAICLVMLDIDFFKEINDTLGHAVGDNILMELSGVLQHCVRETDVVARWGGEEFVILCHQTSIDLVKTLCQRIAAAIKDYRFSGNVQLTCSFGIAKLVNNEPMQSCFERADKALYQAKALGRNQICVDEFNT | failed
